Test results as given in patent US20260152573A1 (ARGENX, published 2026).

Legend:
[1] = target: T1, neonatal Fc receptor (FcRn), endogenous in U937 cells (human, UniProt P55899 24-365; P61769 21-119); test: FcRn occupancy, FACS, U937 cells, with albumin
T1 construct: whole, on cells; Free FcRn was stained intracellularly after fixation and permeabilisation
Method: (§1) Next, FcRn occupancy was tested using a cell-based FcRn occupancy assay in the presence or absence of albumin. […] Cells (HEK FcRn mut or U937) were plated in a 96-well microplate. Cells were incubated with test article for two hours, shaking at 37° C., pH 7.4 in FACS buffer. Plates were then transferred immediately on ice and cells were collected by centrifugation at 4° C. Cells stained for viability in FACS buffer at pH 6 and then fixed/permeabilized in permeabilization buffer at pH 6. […] Cells were analyzed by FACS, ensuring that they are kept on ice until immediately prior to analysis.

[2] = target: T1, neonatal Fc receptor (FcRn), endogenous …; test: FcRn occupancy, FACS, U937 cells, without albumin
Method: as §1

[3] = target: T1, neonatal Fc receptor (FcRn), endogenous …; test: cell-based FcRn occupancy assay on U937 cells, flow cytometry; free FcRn stained with anti-FcRn-Fab AF647
human serum albumin [4] = target: T2, human serum albumin (human, UniProt P02768 25-609); test: SPR Biacore 8K+ SCK, albumin on chip, pH 7.4; pH 7.4
T2 construct: Immobilised on SPR chips; also added in solution in the FcRn occupancy assays; also called HSA; humanSA

[5] = target: T3, cynomolgus monkey serum albumin (cynomolgus monkey, UniProt A2V9Z4 25-608); test: SPR Biacore 8K+ SCK, albumin on chip, pH 5.5
T3 construct: Immobilised on SPR chips; also called cynoSA; cynomolgus albumin

[6] = target: T3, cynomolgus monkey serum albumin; test: SPR Biacore 8K+ SCK, albumin on chip, pH 7.4
human serum albumin [7] = target: T2, human serum albumin; test: SPR Biacore 8K+ SCK, albumin on chip, pH 7.4
human serum albumin [8] = target: T2, human serum albumin; test: SPR Biacore 8K+ SCK, albumin on chip, pH 5.5
[9] = target: T3, cynomolgus monkey serum albumin; test: SPR Biacore 8K+ SCK, albumin on chip, pH 7.4; remark: listed apart in the source
human serum albumin [10] = target: T2, human serum albumin; test: SPR (Biacore), albumin binding at pH 5.5 and pH 7.4; concentration not given; the legend says only albumin, the example names albumin coated and construct flown over
[11] = target: T3, cynomolgus monkey serum albumin; test: screening by ELISA/Biacore
[12] = target: T4, isolated domain II of serum albumin (UniProt P02768 213-409, limits assumed); test: screening by ELISA/Biacore
T4 construct: domain: DII; also called isolated DII

mouse serum albumin = target: T5, mouse serum albumin (mouse, UniProt P07724 25-608); test: screening by ELISA/Biacore
T5 construct: Immobilised on SPR chips; also called mouseSA; MSA

T1 sequence (P55899 24-365 limits assumed, chain 1 of 2): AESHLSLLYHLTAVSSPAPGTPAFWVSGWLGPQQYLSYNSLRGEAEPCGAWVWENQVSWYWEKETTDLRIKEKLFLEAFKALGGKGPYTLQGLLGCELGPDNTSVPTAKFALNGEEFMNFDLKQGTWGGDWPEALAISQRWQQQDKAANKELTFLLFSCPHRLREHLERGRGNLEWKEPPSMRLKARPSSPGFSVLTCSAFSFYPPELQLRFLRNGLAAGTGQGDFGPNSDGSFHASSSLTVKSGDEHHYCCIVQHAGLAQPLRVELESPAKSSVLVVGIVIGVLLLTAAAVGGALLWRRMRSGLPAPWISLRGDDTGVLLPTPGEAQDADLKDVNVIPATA
T1 sequence (P61769 21-119 limits assumed, chain 2 of 2): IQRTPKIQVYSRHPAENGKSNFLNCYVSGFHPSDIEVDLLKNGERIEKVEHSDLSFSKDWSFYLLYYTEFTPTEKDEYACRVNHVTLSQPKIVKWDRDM

B1: TA-Alb23-Fc-ABDEG (Fc fusion)
chain: EVQLLESGGGLVQPGGSLRLSCAASGFTFRSFGMSWVRQAPGKGPEWVSSISGSGSDTLYADSVKGRFTISRDNSKNTLYLQMNSLRPEDTAVYYCTIGGSLSRSSQGTLVTVSSDKTHTCPPCPAPELLGGPSVFLFPPKPKDTLYITREPEVTCVVVDVSHEDPEVKFNWYVDGVEVHNAKTKPREEQYNSTYRVVSVLTVLHQDWLNGKEYKCKVSNKALPAPIEKTISKAKGQPREPQVYTLPPSRDELTKNQVSLTCLVKGFYPSDIAVEWESNGQPENNYKTTPPVLDSDGSFFLYSKLTVDKSRWQQGNVFSCSVMHEALKFHYTQKSLSLSPG
notes: Two Alb23 VHH fragments at the N-termini of both Fc domains of efgartigimod; also called two-armed N-terminal anti-HSA-Fc-ABDEG
For B1, the “% max occupancy” value [1] was 39.1%, the IC50 [1] was 389 nM and the IC50 [2] was 7.5 nM.

B2: mAb37-OA-ABDEG (antibody, human IgG1, kappa)
heavy: QVQLVQSGAEVMKPGSSVKVSCKASGYTFSWYHLEWVRQAPGHGLEWMGEIDPGTFTTNYNEKFKARVTFTADTSTSTAYMELSSLRSEDTAVYYCARFSHFSGSNHDYFDYWGQGTLVTVSSASTKGPSVFPLAPSSKSTSGGTAALGCLVKDYFPEPVTVSWNSGALTSGVHTFPAVLQSSGLYSLSSVVTVPSSSLGTQTYICNVNHKPSNTKVDKKVEPKSCDKTHTCPPCPAPELLGGPSVFLFPPKPKDTLYITREPEVTCVVVDVSHEDPEVKFNWYVDGVEVHNAKTKPREEQYNSTYRVVSVLTVLHQDWLNGKEYKCKVSNKALPAPIEKTISKAKGQPREPQVYTLPPSRDELTKNQVSLWCLVKGFYPSDIAVEWESNGQPENNYKTTPPVLDSDGSFFLYSKLTVDKSRWQQGNVFSCSVMHEALKFHYTQKSLSLSPG
light: EIVMTQSPATLSVSPGERATLSCRASQSIGTNIHWYQQKPGQAPRLLIYYASESISGIPARFSGSGSGTEFTLTISSLQSEDFAVYYCQQSWSWPTTFGGGTKVEIKRTVAAPSVFIFPPSDEQLKSGTASVVCLLNNFYPREAKVQWKVDNALQSGNSQESVTEQDSKDSTYSLSSTLTLSKADYEKHKVYACEVTHQGLSSPVTKSFNRGEC
chain: DKTHTCPPCPAPELLGGPSVFLFPPKPKDTLYITREPEVTCVVVDVSHEDPEVKFNWYVDGVEVHNAKTKPREEQYNSTYRVVSVLTVLHQDWLNGKEYKCKVSNKALPAPIEKTISKAKGQPREPQVYTLPPSRDELTKNQVSLSCAVKGFYPSDIAVEWESNGQPENNYKTTPPVLDSDGSFFLVSKLTVDKSRWQQGNVFSCSVMHEALKFHYTQKSLSLSPG
notes: it is not used here as a chain; also called one-armed NT-mAb37 Fab attached to Fc-ABDEG via natural hinge region
For B2, the “IC50 (read off the curve)” value [3] was roughly 1 nM.

B3: OA-Alb23-Fc-ABDEG (Fc fusion)
chain: EVQLLESGGGLVQPGGSLRLSCAASGFTFRSFGMSWVRQAPGKGPEWVSSISGSGSDTLYADSVKGRFTISRDNSKNTLYLQMNSLRPEDTAVYYCTIGGSLSRSSQGTLVTVSSDKTHTCPPCPAPELLGGPSVFLFPPKPKDTLYITREPEVTCVVVDVSHEDPEVKFNWYVDGVEVHNAKTKPREEQYNSTYRVVSVLTVLHQDWLNGKEYKCKVSNKALPAPIEKTISKAKGQPREPQVYTLPPSRDELTKNQVSLWCLVKGFYPSDIAVEWESNGQPENNYKTTPPVLDSDGSFFLYSKLTVDKSRWQQGNVFSCSVMHEALKFHYTQKSLSLSPG
Fc: DKTHTCPPCPAPELLGGPSVFLFPPKPKDTLYITREPEVTCVVVDVSHEDPEVKFNWYVDGVEVHNAKTKPREEQYNSTYRVVSVLTVLHQDWLNGKEYKCKVSNKALPAPIEKTISKAKGQPREPQVYTLPPSRDELTKNQVSLSCAVKGFYPSDIAVEWESNGQPENNYKTTPPVLDSDGSFFLVSKLTVDKSRWQQGNVFSCSVMHEALKFHYTQKSLSLSPG
For B3, the “% max occupancy” value [1] was 51.1%, the IC50 [1] was 25 nM and the IC50 [2] was 8.5 nM.

B4: Alb23 (VHH)
VHH: EVQLLESGGGLVQPGGSLRLSCAASGFTFRSFGMSWVRQAPGKGPEWVSSISGSGSDTLYADSVKGRFTISRDNSKNTLYLQMNSLRPEDTAVYYCTIGGSLSRSSQGTLVTVSS
notes: VHH alone, injected in solution; also called VHH-Alb23_Parental (#1); Alb23 parental
B4 was tested, and the Kd (human serum albumin [4]) was 2.37 nM, the Kd [5] was 1.32 nM and the Kd [6] was 2.68 nM. For the same binder, the Kd (human serum albumin [7]) was 2.37 nM, the Kd (human serum albumin [8]) was 1.42 nM and the Kd [9] was 2.68 nM.

B5: TA-Fc-ABDEG-Alb23 (Fc fusion)
chain: DKTHTCPPCPAPELLGGPSVFLFPPKPKDTLYITREPEVTCVVVDVSHEDPEVKFNWYVDGVEVHNAKTKPREEQYNSTYRVVSVLTVLHQDWLNGKEYKCKVSNKALPAPIEKTISKAKGQPREPQVYTLPPSRDELTKNQVSLTCLVKGFYPSDIAVEWESNGQPENNYKTTPPVLDSDGSFFLYSKLTVDKSRWQQGNVFSCSVMHEALKFHYTQKSLSLSPGGGGGSGGGGSGGGGSGGGGSEVQLLESGGGLVQPGGSLRLSCAASGFTFRSFGMSWVRQAPGKGPEWVSSISGSGSDTLYADSVKGRFTISRDNSKNTLYLQMNSLRPEDTAVYYCTIGGSLSRSSQGTLVTVSS
notes: also called Fc-ABDEG-Alb23 (two-armed)
With B5 the binding result (human serum albumin [10]) was “binds”, the “% max occupancy” value [1] was 69.7% and the IC50 [1] was 14.5 nM.

B6: 2H11 (VHH)
VHH: ELQVVESGGGLVQAGGSLRLSCAASGRTFRSNTMGWFRQAPGKEREFVAAITWSGGTTYYADSVKGRFAISGDNAKNTVYLQMNSLKPEDTAVYYCAAEGPKWEPWNGIYHPADFGSWGQGTQVTVSS
notes: Clone from llama phage display libraries; also called 2H11 parental VHH; clone 2H11
B6: no binding [11]; no binding [12]; no binding (mouse serum albumin).
